Two molecules from patent US20090170141A1 (University of Texas, published 2009) can be followed below.

Data set [1] concerns the target T1, recombinant wild-type pro-ghrelin-His8 (mouse, UniProt Q9EQX0 24-117).
T1 sequence: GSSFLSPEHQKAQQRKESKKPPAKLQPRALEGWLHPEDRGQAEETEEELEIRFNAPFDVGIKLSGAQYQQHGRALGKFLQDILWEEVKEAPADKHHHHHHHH
The data set is described as follows: cell-based or functional assay.

In data set [2] the target is T2, recombinant wild-type pro-ghrelin-His8, Q9EQX0.
T2 chain: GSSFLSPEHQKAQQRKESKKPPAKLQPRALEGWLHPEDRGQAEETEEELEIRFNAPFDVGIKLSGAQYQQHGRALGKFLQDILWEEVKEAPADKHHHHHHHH

Regarding “GOAT expressed in Sf9 insect cells from pFastBac HT-A (His10-tag) (from UniProt P0C7A3 1-435) (enzyme)”, the acylating activity of GOAT in Sf9 membranes against that in INS-1 cell membranes in data set [1] came to 5 fold.

B1: mouse ghrelin O-acyltransferase (GOAT) (enzyme)
chain: MDWLQLFFLHPLSFYQGAAFPFALLFNYLCILDTFSTRARYLFLLAGGGVLAFAAMGPYSLLIFIPALCAVALVSFLSPQEVHRLTFFFQMGWQTLCHLGLHYTEYYLGEPPPVRFYITLSSLMLLTQRVTSLSLDICEGKVEAPRRGIRSKSSFSEHLWDALPHFSYLLFFPALLGGSLCSFRRFQACVQRSSSLYPSISFRALTWRGLQILGLECLKVALRSAVSAGAGLDDCQRLECIYLMWSTAWLFKLTYYSHWILDDSLLHAAGFGAEAGQGPGEEGYVPDVDIWTLETTHRISLFARQWNRSTALWLRRLVFRKSRRWPLLQTFAFSAWWHGLHPGQVFGFLCWSVMVKADYLIHTFANVCIRSWPLRLLYRALTWAHTQLIIAYIMLAVEGRSLSSLCQLCCSYNSLFPVMYGLLLFLLAERKDKRN
With B1, the “amount of [3H]octanoyl pro-ghrelin formed, in vitro assay with Sf9 membranes, against S3A mutant pro-ghrelin as substrate” value in data set [2] was “more than 5-fold higher than when the S3A mutant pro-ghrelin was used as the substrate”. Further, the “3H-radioactivity covalently linked to pro-ghrelin, in vitro assay with [3H]octanoyl CoA and INS-1 cell membranes, against mock-transfected membranes” value in data set [1] stood at 5 fold.
